Laboratory results published in patent publication US7193044B1, “Compounds and methods for regulating apoptosis, and methods of making and screening for compounds that regulate apoptosis” (Immunogen, Inc., priority 2000, dated 2007).

What was measured:
GST-Bcl-XL = GST-Bcl-XL (Homo sapiens, UniProt Q07817); assay: GST-Bcl-XL binding (glutathione bead pull-down) of BAD; conditions: 35S-labeled in vitro translated full-length protein incubated with PKA and ATP
Experimental: In order to test whether the additional and novel phosphorylation site on BAD has functional significance, the effect on BAD binding to Bcl-XL was examined. Recombinant Bcl-XL tagged with the glutathione S-transferase (“GST”) moiety (“GST-Bcl-XL”) was incubated with WCL prepared from COS-7 cells expressing the double mutant HA-BAD S112A/S136A, and the HA-BAD S112A/S136A that bound to the GST-Bcl-XL was precipitated with GST beads. […] No HA-BAD S112A/S136A was precipitated with GST beads from the WCL that were not incubated with GST-Bcl-XL (FIG. 1, lane 4).
The ability of full-length BAD and mutant BAD S155A to bind Bcl-XL was also determined (FIG. 3(c)). Full-length BAD (“WT”) and mutant BAD S155A (“S155A”) were produced by in vitro translation and labeled with ^35S-methionine therein. […] Proteins bound to the beads (“Bound”) (lower panel) and samples of the reactions collected prior to incubation with the beads (“Total”) (upper panel) were analyzed by SDS-PAGE followed by autoradiography.
For Bcl-XL binding studies, GST-Bcl-XL (1 mg/ml final concentration) was added to cell lysates derived from BAD expressing cells, and incubated with rotation for two hours at 4° C. […] The beads were then washed with RIPA buffer, the proteins were separated by SDS-PAGE and associated BAD detected by probing the blot with anti-HA antibody.

[1] = tested on: BAD Ser155 phosphorylation in HeLa cells; assay: BAD phosphorylation in HeLa cells (western blot band-shift / anti-phospho-Ser155 antibody); type: cell-based, human; conditions: HeLa cells
Experimental: A mammalian expression vector encoding mutant HA-BAD S155A, derived from the shorter murine BAD of SEQ ID NO:3, was constructed. HA-BAD S155A has an amino acid sequence wherein the serine at a position corresponding to Ser155 is substituted with alanine. A western blot was performed on WCL prepared from cells expressing the shorter murine BAD (SEQ ID NO:3), HA-BAD S112A, HA-BAD S136A, or HA-BAD S155A, and probed with anti-HA antibody.
A western blot analysis, probed with anti-HA antibody, was performed on lysates produced from the Forskolin treated and untreated (control) cells to determine whether Forskolin could induce the phosphorylation BAD or mutant BAD.
HeLa cells transiently expressing HA-BAD, HA-BAD S155A, HA-BAD S112A/S136A, or HA-BAD S112A/S136A/S155A were treated with Forskolin or a buffer control.
The HA-BAD S112A/S136A double mutant was transiently expressed in HeLa cells, and transfected cell cultures were treated with each of the GPCR ligands, individually and as a group. A western blot analysis, probed with anti-HA antibody, was performed on lysates produced from the treated and untreated (negative control) cells. […] Forskolin (FK) and no treatment (−) were positive and negative controls, respectively (FIG. 6(a), […], respectively).
Non-transfected HeLa cells were treated with Forskolin or L-epinephrine, followed by western blot analysis of cell lysates using anti-BAD antibodies.
Transformants were treated with L-epinephrine, then lysed and subjected to anti-HA western blot analysis.
To further test whether phosphorylation of Ser155 is dependent on the PI 3-kinase/Akt pathway, HeLa cells were transfected with the mutant HA-BAD S155A and pretreated with Wortmannin, an inhibitor of PI 3-kinase. These cells were then stimulated with epidermal growth factor (EGF), lysed and analyzed by western blot analysis.
For immunoprecipitation of all HA-BAD species, 1 μg of the anti-HA antibody was added to the cell lysates, and incubated at 4° C. for one hour. Protein G agarose (Pierce) was then added (50 μl/fraction of 50% slurry) and followed by a one hour incubation at 4° C. Beads were washed with RIPA buffer, boiled in loading buffer (2% SDS, 10% glycerol, 5% β-ME, 60 mM Tris, pH 6.8, 0.002% Bromophenol Blue) and loaded onto polyacrylamide gels. After electrophoresis, proteins were transferred to nitrocellulose membranes, and blots blocked in western wash buffer (40 mM Tris, pH 8.0, 150 mM NaCl, 0.2% NP-40) with 5% BSA for one hour at room temperature. Blots were incubated with primary antibody diluted in western wash buffer with 3% BSA at room temperature for 1–2 hours, washed with western wash buffer and incubated with secondary HRP-coupled antibody diluted in western wash buffer with 1.5% BSA, and washed extensively. Polypeptides were detected with the ECL chemiluminescence according to the manufacturers instructions (Amersham).

[2] = molecular target: T1, PKA (catalytic subunit from bovine heart) (Bos taurus, UniProt P00517); assay: In vitro kinase assay, phosphorylation of BAD and BAD mutants by PKA; type: biochemical; conditions: 35S-labeled in vitro translated protein
T1 construct: 11 units PKA (catalytic subunit from bovine heart, Calbiochem); purchased Calbiochem; host or cells: bovine heart
Experimental: The ability of full-length BAD and mutant BAD S155A to bind Bcl-XL was also determined (FIG. 3(c)). Full-length BAD (“WT”) and mutant BAD S155A (“S155A”) were produced by in vitro translation and labeled with ^35S-methionine therein. The labeled proteins were then incubated with PKA (“+”) in the presence of unlabeled ATP or a buffer control (“−”). Following the kinase reactions, aliquots of each sample of the four samples were incubated with either GST or GST-Bcl-XL. The protein complex were captured on glutathione-agarose beads. Proteins bound to the beads (“Bound”) (lower panel) and samples of the reactions collected prior to incubation with the beads (“Total”) (upper panel) were analyzed by SDS-PAGE followed by autoradiography.
The GST-tagged BAD and BAD mutants were then expressed individually in cells and the purified GST-tagged polypeptides incubated with purified PKA, in the presence of ^32P radiolabel. A western blot, probed with anti-BAD antibody, was performed on the incubated GST-tagged BAD and BAD mutants to determine whether PKA could phosphorylate the BAD and/or mutant BAD in vitro. The GST-tagged BAD and BAD mutants phosphorylated by PKA could be detected directly by autoradiography due to the incorporation of ^32P radiolabel when the polypeptides were phosphorylated (FIG. 4, upper panel), whereas the total amount of BAD and mutant BAD present in the in vitro reaction was detected by the anti-BAD antibody probe (FIG. 4, lower panel).
In vitro kinase assays were carried out in 30 μl volumes containing 10 mM HEPES buffer, pH 7.5, 100 mM NaCl, 12 mM MgCl2, 1 mM dithiothreitol, […] γ^32P-ATP ([…], NEN), 11 units PKA (catalytic subunit from bovine heart, Calbiochem), and 1 μg purified GST-BAD. Reactions were incubated for 30 min at 30° C. and terminated by the addition of SDS-PAGE sample buffer. Samples were run on a 4–20% SDS-PAGE gel (Novex), transferred to a nitrocellulose membrane and phosphorylated GST-BAD was visualized by autoradiography. To verify that equal amounts of GST-BAD substrates were used, the nitrocellulose was subjected to western blot analysis with 133 ng/ml anti-BAD antibody (C-20).

HeLa cells = assay: Beta-gal ELISA apoptosis assay in transfected HeLa cells; type: cell-based, human; conditions: in the presence of Forskolin after 24 hours
Experimental: Because BAD Ser155 phosphorylation, like Ser136 phosphorylation, prevents BAD from binding to Bcl-XL (FIG. 1), it was possible that by analogy, Ser155 dephosphorylation promotes cell death. To test this idea, HeLa cells were co-transfected with BAD or various BAD serine mutants and a β-gal reporter plasmid. Twenty-four hours post-transfection, cell viability was analyzed by β-gal ELISA.
To test this idea, HeLa cells were again co-transfected with BAD or various BAD serine mutants and a β-gal reporter plasmid. Forskolin was then added to half of the cultures while the other half was left untreated. Beta-gal ELISAs were performed 24 hours post transfection. […] Thus, phosphorylation of Ser155 rescues cells from BAD-induced apoptosis, while substitution of Ser155 with a nonphosphorylatable residue results in increased cell death and the failure of cells to be protected from induced PKA activity.
Beta-gal ELISA assays were performed using the β-gal ELISA system from Boehringer Mannheim, according to manufacture's instructions. Cells were transfected with BAD (or BAD mutant) and β-gal in a ratio of 5:1. The transfected cells were trypsinized and distributed into 96-well tissue culture plates. Twenty-four hours after transfection, cell extracts were obtained by lysing the cells in lysis buffer. Cell extracts (200 μl) were then added to anti-β-gal-coated microtiter plates (MTP). The MTPs were foil-covered and incubated for one hour at 37° C. Solutions were then decanted and the MTPs were washed, followed by the addition of 200 μl of anti-β-gal-DIG working solution, and incubation for an additional hour as described above. Solutions were again decanted, the MTPs washed and 200 μl of DIG-POD working solution were added. The MTPs were incubated for another hour at 37° C., the solution decanted, and the wells washed. 200 μl of substrate with enhancer were added to each well and incubated at room temperature until color development. The β-gal activity was measured by the absorbance of the sample at […]. Data were based on triplicate wells with standard deviations calculated.

Chain of GST-Bcl-XL (Q07817 whole entry): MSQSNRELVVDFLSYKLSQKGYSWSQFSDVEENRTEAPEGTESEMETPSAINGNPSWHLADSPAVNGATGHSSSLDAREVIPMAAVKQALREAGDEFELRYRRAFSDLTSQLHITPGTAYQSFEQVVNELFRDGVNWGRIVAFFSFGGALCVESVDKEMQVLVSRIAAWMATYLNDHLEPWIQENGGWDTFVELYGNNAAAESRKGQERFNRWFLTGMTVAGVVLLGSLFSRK

gel-mobility shift induced by phosphorylation by PKA [2]: induced a gel-mobility shift
B1: wild-type BAD: shorter murine BAD of SEQ ID NO:3 (162 aa), used untagged, HA-tagged or GST-tagged (protein, listed as Mus musculus)
chain: MFQIPEFEPSEQEDASATDRGLGPSLTEDQPGPYLAPGLLGSNIHQQGRAATNSHHGGAGAMETRSRHSSYPAGTEEDEGMEEELSPFRGRSRSAPPNLWAAQRYGRELRRMSDEFEGSFKGLPRPKSAGTATQMRQSAGWTRIIQSWWDRNLGKGGSTPSQ
modifications: optional HA or GST tag
binding to GST-Bcl-XL after phosphorylation by PKA (GST-Bcl-XL): blocked the ability of BAD to bind to Bcl-XL
band-shift (phosphorylation) of expressed BAD construct in response to L-epinephrine [1]: significant band-shift
more cells surviving transient expression than with the BAD S155A mutant (HeLa cells): Approximately 50%
